Assay results from US20220372160A1 (published 2022).

T1: recombinant human CD39 (human, UniProt P49961 38-478)
T1 chain: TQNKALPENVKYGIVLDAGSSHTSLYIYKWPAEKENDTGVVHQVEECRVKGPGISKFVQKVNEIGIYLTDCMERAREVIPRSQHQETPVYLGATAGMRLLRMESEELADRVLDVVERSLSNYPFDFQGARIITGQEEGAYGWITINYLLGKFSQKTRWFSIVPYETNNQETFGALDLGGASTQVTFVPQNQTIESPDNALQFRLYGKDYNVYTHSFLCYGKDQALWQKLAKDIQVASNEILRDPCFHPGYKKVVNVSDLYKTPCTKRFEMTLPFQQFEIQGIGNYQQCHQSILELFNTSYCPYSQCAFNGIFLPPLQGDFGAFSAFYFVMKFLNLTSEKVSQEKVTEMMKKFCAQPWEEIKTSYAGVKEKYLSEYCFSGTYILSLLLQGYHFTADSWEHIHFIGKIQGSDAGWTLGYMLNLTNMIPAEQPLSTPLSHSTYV


Target: T1, recombinant human CD39
Assay: BLI (ForteBio); IgG, monovalent

Kd [nM] | Binder
28.3 | Clone #19 (antibody, V domains shown) VH: EVQLVESGGGLVQPGGSLRLSCAASGFTFRSYWMSWVRQAPGKGLEWVATIKQDGSEKFYVDSVKGRFTISRDNAKNSLYLQMNSLRAEDTAVYYCARDFTRWSHVNWFDPWGQGTLVTVSS VL: EIVMTQSPATLSVSPGERATLSCRASQSVSSSLAWYQQKPGQAPRLLIFGASTRATGIPARFSGSGSGTEFTLTISSLQSEDFAVYYCQQYYHHPYTFGGGTKVEIK
177 | Clone #6 (antibody, V domains shown) VH: EVQLVESGGGLVQPGGSLRLSCAASGFTFSSYGMSWVRQAPGKGLEWVANIKQDGSEKYYVDSVKGRFTISRDNAKNSLYLQMNSLRAEDTAVYYCARDFTRWSHVNWFDPWGQGTLVTVSS VL: EIVMTQSPATLSVSPGERATLSCRASQSVSSSLAWYQQKPGQAPRLLIFGASTRATGIPARFSGSGSGTEFTLTISSLQSEDFAVYYCQQYYHHPYTFGGGTKVEIK
37.3 | Clone #10 (antibody, V domains shown) VH: QVQLVQSGAEVKKPGSSVKVSCKASGGTFSNYAISWVRQAPGQGLEWMGGIIPIFGTANYAQKFQGRVTITADESTSTAYMELSSLRSEDTAVYYCARPRGDYSGYDAGPIDYWGQGTLVTVSS VL: EIVLTQSPATLSLSPGERATLSCRASQSVSSYLAWYQQKPGQAPRLLIYDASNRATGIPARFSGSGSGTDFTLTISSLEPEDFAVYYCQQRFHFPPTFGGGTKVEIK
11.6 | Clone #2 (antibody, V domains shown) VH: not shown VL: EIVLTQSPATLSLSPGERATLSCRASQSVSSYLAWYQQKPGQAPRLLIYDSSNRATGIPARFSGSGSGTDFTLTISSLEPEDFAVYYCQQSFLWPRTFGGGTKVEIK
28.3 | Clone #8 (antibody, V domains shown) VH: QLQLQESGPGLVKPSETLSLTCTVSGGSISSSSYYWGWIRQPPGKGLEWIGSIYYSGSTYYNPSLKSRVTISVDTSKNQFSLKLSSVTAADTAVYYCARGSPTYHDFDLWGRGTLVTVSS VL: EIVLTQSPATLSLSPGERATLSCRASQSVSSYLAWYQQKPGQAPRLLIYDASNRATGIPARFSGSGSGTDFTLTISSLEPEDFAVYYCQQRAIWPPTFGGGTKVEIK
3.81 | Clone #16 (antibody, V domains shown) VH: QVQLVQSGAEVKKPGSSVKVSCKASGGTFSSNAIGWVRQAPGQGLEWMGGIIPAFGTANYAQKFQGRVTITADESTSTAYMELSSLRSEDTAVYYCARDPVRRSPFDIWGQGTMVTVSS VL: EIVLTQSPATLSLSPGERATLSCRASQSVSSYLAWYQQKPGQAPRLLIYDSSNRATGIPARFSGSGSGTDFTLTISSLEPEDFAVYYCQQSFLWPRTFGGGTKVEIK
14.7 | Clone #11 (antibody, V domains shown) VH: QVQLVQSGAEVKKPGSSVKVSCKASGGTFSNYAISWVRQAPGQGLEWMGGIIPIFGTANYAQKFQGRVTITADESTSTAYMELSSLRSEDTAVYYCARPRGDYSGYDAGPIDYWGQGTLVTVSS VL: EIVMTQSPATLSLSPGERATLSCRASQSVSSYLAWYQQKPGQAPRLLIYDSSNRATGIPARFSGSGSGTDFTLTISSLEPEDFAVYYCQQRYLFPITFGGGTKVEIK
94.3 | Clone #7 (antibody, V domains shown) VH: QVQLQESGPGLVKPSETLSLTCAVSGYSISSGYYWAWIRQPPGKGLEWIGSIYHSGSTYYNPSLKSRVTISVDTSKNQFSLKLSSVTAADTAVYYCARGAGHRQFAFDIWGQGTMVTVSS VL: not shown
124 | Clone #9 (antibody, V domains shown) VH: QVQLQESGPGLVKPSETLSLTCAVSGYSISSGYYWAWIRQPPGKGLEWIGSIYHSGSTYYNPSLKSRVTISVDTSKNQFSLKLSSVTAADTAVYYCARGAGHRQFAFDIWGQGTMVTVSS VL: not shown
3.25 | Clone #3 (antibody, V domains shown) VH: not shown VL: DIQMTQSPSSLSASVGDRVTITCRASQSISSYLNWYQQKPGKAPKLLIYAASSLQSGVPSRFSGSGSGTDFTLTISSLQPEDFATYYCQQLYVDPPWTFGGGTKVEIK
1.38 | Clone #12 (antibody, V domains shown) VH: EVQLVESGGGLVQPGGSLRLSCAASGFTFSSYYMQWVRQAPGKGLEWVSYISSSSSTIGYADSVKGRFTISRDNAKNSLYLQMNSLRAEDTAVYYCAKGPRYDSSGYRWRYGMDVWGQGTTVTVSS VL: DIQMTQSPSSLSASVGDRVTITCRASQSISSYLNWYQQKPGKAPKLLIYAASSLQSGVPSRFSGSGSGTDFTLTISSLQPEDFATYYCQQLALTPYTFGGGTKVEIK
3.65 | Clone #4 (antibody, V domains shown) VH: not shown VL: DIQMTQSPSSLSASVGDRVTITCRASQSISSYLNWYQQKPGKAPKLLIYAASSLQSGVPSRFSGSGSGTDFTLTISSLQPEDFATYYCQQLALTPYTFGGGTKVEIK
